For assay [1], the target named is PDK1^9CS with Cys21 rescued (human) (UniProt O15530). The assay is described as follows: non-reducing gel and immunoblot; A375 cells in glucose-free medium for 3 h, with or without NAC (5 mM) or GSH (2.5 mM); PDK1 monomer and dimer bands under non-reducing conditions.
Assay [2] addresses PDK1^9CS with Cys23 rescued (human) (UniProt O15530). The description is as above.
Assay [3] has as its target T1, spleen tyrosine kinase (SYK) (Homo sapiens, UniProt P43405). Nature of the assay: microscale thermophoresis (MST) with GFP-fused SYK in cell lysate. Format: binding. More on the design: SYK-EmerGFP (HEK293T lysate).
Assay [4] has as its target T1, spleen tyrosine kinase (SYK). The assay is described as follows: microscale thermophoresis (MST) with GFP-fused SYK in cell lysate; supported by in vitro kinase activation of bacterially expressed SYK. It is filed as binding. More on the design: full-length SYK-EmerGFP (HEK293T lysate).
For assay [5] the target is unchanged. The description is as above. It is filed as binding. More on the design: full-length SYK-EmerGFP (HEK293T lysate). The source holds these as a separate data set.
Assay [6] deals with T2, endogenous PDK1 (human (endogenous in A375)), O15530.
T2 chain: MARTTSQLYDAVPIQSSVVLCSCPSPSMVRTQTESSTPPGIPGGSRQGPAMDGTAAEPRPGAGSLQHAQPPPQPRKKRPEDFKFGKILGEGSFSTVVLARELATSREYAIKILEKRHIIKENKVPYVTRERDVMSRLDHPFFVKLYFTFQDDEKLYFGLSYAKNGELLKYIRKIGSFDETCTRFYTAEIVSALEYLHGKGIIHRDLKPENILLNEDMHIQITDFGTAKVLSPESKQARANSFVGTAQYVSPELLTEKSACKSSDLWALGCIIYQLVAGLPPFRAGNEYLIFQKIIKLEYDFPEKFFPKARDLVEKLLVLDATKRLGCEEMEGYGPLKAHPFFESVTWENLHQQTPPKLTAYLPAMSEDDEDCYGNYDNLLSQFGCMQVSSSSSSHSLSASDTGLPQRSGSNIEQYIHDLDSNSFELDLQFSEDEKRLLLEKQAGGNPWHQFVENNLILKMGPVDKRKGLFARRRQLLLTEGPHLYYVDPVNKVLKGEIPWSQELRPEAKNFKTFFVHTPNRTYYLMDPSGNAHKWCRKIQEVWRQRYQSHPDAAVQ
The assay is described as follows: non-reducing gel and immunoblot; A375 cells in glucose-free medium for 3 h, with or without NAC (5 mM) or GSH (2.5 mM); PDK1 monomer and dimer bands under non-reducing conditions. As to conditions: remark: other sources report otherwise.

For assay [7], the target named is T3, PDK1 (exogenous, HA- or Flag-tagged) (human), O15530.
T3 chain: T2 chain
Described as above. As to conditions: remark: other sources report otherwise.

In assay [1], “PDK1^9CS with Cys21 rescued (from UniProt O15530 1-556) (enzyme)” had a stoichiometry N of 2.
Regarding “PDK1^9CS with Cys23 rescued (from UniProt O15530 1-556) (enzyme)”, in assay [2], the stoichiometry N was determined as 2.
Regarding `NC(=O)C1=CN([C@@H]2O[C@H](COP(=O)(O)OP(=O)(O)OC[C@H]3O[C@@H](n4cnc5c(N)ncnc54)[C@H](OP(=O)(O)O)[C@@H]3O)[C@@H](O)[C@H]2O)C=CC1` [NADPH], in assay [3], the Kd was determined as 232 ± 16.5 µM.
`Nc1ncnc2c1ncn2[C@@H]1O[C@H](COP(=O)(O)OP(=O)(O)O)[C@@H](O)[C@H]1O` [ADP] registered a Kd in assay [4] of 42.4 ± 19.1 µM.
On to `NC(=O)c1ccc[n+]([C@@H]2O[C@H](COP(=O)([O-])OP(=O)(O)OC[C@H]3O[C@@H](n4cnc5c(N)ncnc54)[C@H](OP(=O)(O)O)[C@@H]3O)[C@@H](O)[C@H]2O)c1` [NADP^+], for which, in assay [5], the affinity, expressed as Kd, was 69.1 ± 16.1 µM.

B1: endogenous PDK1, O15530 1-556 (enzyme)
chain: T2 chain
The molecule B1 gave a stoichiometry N in assay [6] of 2.

B2: PDK1 (exogenous, HA- or Flag-tagged), O15530 1-556 (enzyme)
chain: T2 chain
Molecule B2 came in with a stoichiometry N in assay [7] of 2.
